From the supplement of paper PMC7877785
± gives the uncertainty stated by the source.

Assay: self-splicing fitness, log relative to wild type (ln ratio); higher = more splicing; Tetrahymena group I intron in knt gene, E. coli kanamycin selection, DiMSum; sequences stand for … in CUCUCU…GGAGGGAAAAGUUAUCAGGCAUGCACCUGGUAGCUAGUCUUUAAACCAAUAGAUUGCAUCGGUUUAAAAGGCAAGACCGUCAAAUUGCGGGAAAGGGGUCAACAGCCGUUCAGUACCAAGUCUCAGGGGAAACUUUGAGAUGGCCUUGCAAAGGGUAUGGUAAUAAGCUGACGGACAUGGUCCUAACCACGCAGCCAAGUCCUAAGUCAACAGAUCUUCUGUUGAUAUGGAUGCAGUUCACAGACUAAAUGUCGGUCGGGGAAGAUGUAUUCUUCUCAUAAGAUAUAGUCGGACCUCUCCUUAAUGGGAGCUAGCGGAUGAAGUGAUGCAACACUGGAGCCGCUGGGAACUAAUUUGUAUGCGAAAGUAUAUUGAUUAGUUUUGGAGUACUCGUGGUCG
Outline: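 Fitness was computed with DiMSum as the error-weighted combination of replicate fold changes, kanamycin versus none, each normalised to wild type. The library randomised all eight intron nucleotides of the P1ex region, with the intron placed in the knt kanamycin-resistance gene on pET-22b(+) in E. coli BL21(DE3). Six replicate transformations were grown overnight at 37°C or 30°C on LB agar with or without 25 μg/mL kanamycin, plus 100 μg/mL carbenicillin, 50 μM IPTG and 0.2% rhamnose. Pooled colonies were amplicon-sequenced on an Illumina HiSeq 2500.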

Sequence	self-splicing fitness (ln) (30 °C)	self-splicing fitness (ln) (37 °C)
UGCAAGCAAUAUUACGCAUC	-1.87 ± 0.45	-1.52 ± 0.45
CAACAGCAAUAUUACGAUUU	-0.837 ± 0.067	-0.69 ± 0.083
UCGAAGCAAUAUUACGACGA	-0.904 ± 0.12	-0.374 ± 0.11
CUCAAGCAAUAUUACGGUUA	-2.78 ± 0.2	-2.81 ± 0.2
GACUAGCAAUAUUACGGUUC	-3.18 ± 0.17	-2.7 ± 0.32
GGAAAGCAAUAUUACGCUCG	-0.352 ± 0.15	0.329 ± 0.17
CGGCAGCAAUAUUACGGGAG	-2.36 ± 0.15	-1.77 ± 0.18
GUCUAGCAAUAUUACGUUCA	-0.225 ± 0.11	0.35 ± 0.12
GGGCAGCAAUAUUACGUUUC	-2.2 ± 0.094	-0.672 ± 0.098
CACAAGCAAUAUUACGGUGC	-3.25 ± 0.2	-2.72 ± 0.24
GAGCAGCAAUAUUACGUACU	-0.0719 ± 0.068	-0.502 ± 0.085
GUGCAGCAAUAUUACGACGC	-0.518 ± 0.099	0.23 ± 0.13
GACUAGCAAUAUUACGAAUA	-2.54 ± 0.24	-0.356 ± 0.21
UUGUAGCAAUAUUACGCUGG	-1.38 ± 0.15	-1.77 ± 0.23
CUAAAGCAAUAUUACGUGAU	-1.35 ± 0.07	-1.14 ± 0.11
UUUGAGCAAUAUUACGGGAA	-2.02 ± 0.39	-2.22 ± 0.32
AGUGAGCAAUAUUACGGGUU	-2.39 ± 0.26	-2.35 ± 0.33
UCGAAGCAAUAUUACGUAAC	-2.1 ± 0.19	-2.77 ± 0.38
UCACAGCAAUAUUACGGUCC	-2.85 ± 0.21	-2.2 ± 0.2
CAUGAGCAAUAUUACGUCCU	-4.2 ± 0.32	-1.88 ± 0.2
GACUAGCAAUAUUACGUUAU	-2.4 ± 0.098	-1.28 ± 0.11
ACACAGCAAUAUUACGAGGG	-3.71 ± 0.11	-1.85 ± 0.1
GGAAAGCAAUAUUACGACGG	-4.1 ± 0.39	-2.12 ± 0.4
AACCAGCAAUAUUACGCUCC	-0.493 ± 0.094	-0.0692 ± 0.12

Sequence	self-splicing fitness (ln) (30 °C)	self-splicing fitness (ln) (37 °C)
AAUUAGCAAUAUUACGCAGU	-2.78 ± 0.16	-1.3 ± 0.2
AUCGAGCAAUAUUACGACUA	-1.54 ± 0.24	-0.741 ± 0.15
ACCUAGCAAUAUUACGAUCC	-2.35 ± 0.17	-1.15 ± 0.2
ACGAAGCAAUAUUACGGAGA	-2.86 ± 0.2	-2.42 ± 0.22
CUAUAGCAAUAUUACGUUGC	-2.61 ± 0.32	-2.37 ± 0.32
GGAUAGCAAUAUUACGCGGG	-3.3 ± 0.17	-0.931 ± 0.11
GGCAAGCAAUAUUACGUAAA	-0.188 ± 0.089	-0.267 ± 0.1
CAUGAGCAAUAUUACGCAAA	-3.92 ± 0.38	-1.97 ± 0.24
GACAAGCAAUAUUACGGGCC	-1.81 ± 0.18	-1.96 ± 0.17
CCGCAGCAAUAUUACGGCGA	-1.15 ± 0.084	-0.544 ± 0.085
GUGAAGCAAUAUUACGGAAA	-1.64 ± 0.11	-0.16 ± 0.17
GCCGAGCAAUAUUACGUGAA	-1.74 ± 0.076	-0.417 ± 0.092
CUAGAGCAAUAUUACGUGCA	-3.88 ± 0.21	-2.18 ± 0.19
GGAUAGCAAUAUUACGGUAC	-1.59 ± 0.14	0.179 ± 0.13
ACUUAGCAAUAUUACGAUAG	-2.71 ± 0.12	-1.7 ± 0.16
GAAUAGCAAUAUUACGUGUC	-3.72 ± 0.27	-2.58 ± 0.14
GGCUAGCAAUAUUACGUAGC	-4.64 ± 0.42	-2.16 ± 0.43
AGCUAGCAAUAUUACGUCUU	-0.517 ± 0.098	0.46 ± 0.14
CAAUAGCAAUAUUACGCCGG	0.0303 ± 0.12	0.077 ± 0.15
CAUAAGCAAUAUUACGCGCG	-0.536 ± 0.14	0.0409 ± 0.15
UGAUAGCAAUAUUACGCUGA	-1.79 ± 0.2	-0.53 ± 0.12
GGGAAGCAAUAUUACGUACA	-1.02 ± 0.14	-0.334 ± 0.24
UGUUAGCAAUAUUACGUCUU	-2.21 ± 0.15	-1.46 ± 0.13
